We go through 19 molecules from publication PMC9907207 (Nature Communications, 2023).

B1: GAR12, human IgG1 monoclonal antibody (antibody, V domains shown)
VH: EVQLVQSGGGLVQPGGSLRLSCAASGFTFSSYAMSWVRQAPGKGLEWVLSISGSGGSTYYADSVKGRFTISIDNSKKTVYLQMNSLRAEDTAVYYCAKSGEQQLVQAEYFHHWGQGTLVTVSS
VL: DIQMTQSPSTLSASVGDRVTITCRASQSIGRWLAWYQQKPGKAPKLLIYDASSLESGVPSRFSGSGFGTEFTLTISSLQPDDFATYYCQQCDSLLTFGGGTKLEIK
notes: source: ExpiCHO, purified (Protein G resin)
B2: GAR05, human IgG1 monoclonal antibody (antibody, V domains shown)
VH: EVQLVQSGGDLVQPGGSLRLSCAVSGFTVSRNYMTWVRQAPGRGLEWVSLIYPGGSAFYADSVKGRFTISRDNSKNTLYLQMNSLRVEDTAVYYCARDPVSTGHYHDSDYWGQGTLVTVSS
VL: DIQMTQSPSALSASVGDRVTITCQASQDINKFLNWYQQKPGKAPKLLIYDASNLETGVPSRFSGGGSGTDFTFTISSLQPEDIATYYCHQYDNLPRTFGQGTKVELK
notes: as for B1
B3: S2H97, class 5 monoclonal antibody (antibody, V domains shown)
VH: QVRLVQSGAEVKKSGESLKISCKGSGYSFTSYWIGWVRQMPGKGLEWMGIIYPGDSDTRYSPSFQGQVTISADKSISTVYLQWSSLKASDTAMYYCARQWSHYTYDYYYWGQGTLVTISS
VL: QSVLTQPASVSGSPGQSITISCTGISSDVGGYNSVSWYQQHPGKAPKLMIYDVTNRPSGVSNRFSGSKSGNTASLTISGLQAEDEADYYCSSYTSSSTPPYVFGTGTKVSVL
B4: GAR06 (antibody, V domains shown)
VH: QVTLRESGPALVKPTQTLTLTCTFSGFSVSSAGMCVSWIRQPPGKALEWLARIDWDDDKYYSTSLRTRLTISTDTSKNQVVLTMTNMDPVDTATYYCARTTMTTSYYFDSWGQGTLVTVSS
VL: QSALTQPRSVSGSPGQSVTISCTGTSSDVGGYDYVSWYQHHPGKAPKVVLYDVTKRPSGVPDRFSGSKSGNTASLTISGLQAEDEADYYCCSYAGSYAGVFGTGTKVTVL
B5: GAR07 (antibody, V domains shown)
VH: EVQLVQSGGGLVQPGGSLRLSCAASEFIVSSNYMSWVRQAPGKGLEWVSVIYSGGSTFYADSVKGRFTISRDNSKNTLHLQMNSLRVEDTAVYYCARDRGDRFDYWGQGTLVTVSS
VL: not shown
B6: GAR04 (antibody, V domains shown)
VH: QVQLVQSGAEVKKSGASVKVSCKASGYTFTGYHMHWVRQAPGQGLEWMGWINPKSDGTNSAQKFQGRVTMTRDTSISTAYMELSRLRSDDTAVYYCARLAVREYYDNSGFYRKTTDAFDLWGQGTMVTVSS
VL: DIVMTQSPDSLAVSLGERATINCKSSQSVLYNSNNKNYLAWYQQKPGQPPKLLIYWASTRESGVPDRFSGSGSGTDFTLTINSLQAEDVAVYYCQQYSITTPPITFGQGTRLEIK
B7: GAR09 (antibody, V domains shown)
VH: EVQLVESGGGLVQPGGSLRLSCAASGFTVSYNYMSWVRQAPGKGLEWVSLIYSGGSTYYADSVKGRFTISRDSSKNTLYLQMNSLRVEDTAVYYCAREVPSRSGWSGGQGTLVTVSS
VL: DIVMTQSPSSLSASVGDRVTITCQASQDMNKYLNWYQQKPGKAPKLLIYDASNLETGVPSRFSGSGSGTNFTFTISSLQPEDIATYYCQQYDNLPPVFGPGTKVEIK
B8: GAR16 (antibody, V domains shown)
VH: EVQLVESGGGVVQPGGSLRLSCAASGFTFSNYDMHWVRQATGKGLEWVSAIGTAGDTYYPDSVKGRFTISRDNAKNSLYLQMNSLRAEDTAVYYCTRVVHSSDWTSWSAGIHNWFDSWGQGTLVTVSS
VL: DIVMTQSPSSLSASVGDRVSITCRTSQSIRTYLNWYQQKPGKAPKLLIYASSSLQSGVPSRFSGSGSGTDFTLSISSLQPEDFATYYCQQSYSMPPWTFGQGTKLEIK
B9: GAR14 (antibody, V domains shown)
VH: EVQLVESGGGLVQPGGSLRLSCAASGFTFSRYDMHWVRQTTGKGLEWVSAIGTAGDTYYPDSVKGRFTISRENAKNSLHLQMNSLRVGDTAVYFCARAVDCSDISCYSNWYFDLWGRGTLVTVSS
VL: DIQLTQSPSSLSASVGDRVTITCRASQTISSFLNWYQQKPGKAPHLLIYAASSLQSGVPSRFSGSGSGTDFTLTITNLQPEDFATYYCQQSYSTPPITFGQGTRLEIK
B10: GAR18 (antibody, V domains shown)
VH: QVQLQESGPGLVKPSETLSLTCTVSGGSISDYYWSWIRQPPGKGLEWIGYIHGSGGTNYNPSLKSRVTILVDTSKNELSLKLSSVTTADTAVYYCARDDMISGLGYYGMDVWGQGTTVTVSS
VL: EIVMTQSPATLSLSPGERVTLSCRASQSVSSYLAWYQQKPGQAPRLLIYDASNRATGIPARFSGSGSGTDFTLTISSLEPEDFAVYYCQQRSNWPSTFGPGTKVDIK
B11: GAR20 (antibody, V domains shown)
VH: QVQLQQWGAGLLKPSETLSLTCAVYGGSFSDFYWSWIRQPPGKGLEWIGQIDHSGSPNYNPSLKSRVTMSVDTSKNHFSLRLTSMTAADTAVYYCAKGPRYGSGSFDPLGQGTLVTVSS
VL: SYELTQPPSVSVAPGQTARITCGGDNIGSKTVHWYQQKPGQAPVLVVYDDGDRPSGIPERFSGSNPGNTATLTISRVEAGDEADYYCQVWDSSSDSVVFGGGTELTVL
B12: GAR15 (antibody, V domains shown)
VH: EVQLVESGGGLVQPGGSLRLSCAASGLTVSSNYMSWVRQAPGKGLEWVSVIYSGGSTFYADSVKGRFTISRHNSKNTLYLQMNSLRGDDTAVYYCARDLIYYGMDVWGQGTTVTVSS
VL: DIVMTQSPSSLSASVGDRVTITCRASQGISSSLAWYQQNPGKPPKLLIYAASTLQSGVPSRFSGSGSGTDFTLTISSLQPEDFATYYCQQLNSDLYTFGQGTKVEIK
B13: GAR01 (antibody, V domains shown)
VH: QVQLVQSEGGVVQPGRSLRLSCTASGFTFSSYGMHWVRQAPGKGLEWVALISYDGSDKYYADSVKGRFTISRDNSKNTLYLQMNSLRPEDTAVFYCAKGGWYGSSSGFDYWGQGTLVTVSS
VL: DIQMTQSPSSLSASVGDRVTITCQASQDISNYLNWYQQKPGKAPKLLIYDASNLETGVPSRFSGSGSGTDFIFTISSLQPEDIATYYCQQYHDVPRTFGQGTKVEIK
B14: GAR13 (antibody, V domains shown)
VH: EVQLVESGGGLVQPGGSLRLSCAASGFTFSNYDMHWVRQVTGKGLEWVSLIGTSGDTYYPGSVKGRFTISRDNAKNSLYLQMNSLRADDTAVYYCVRAAFDDHNIYSWFDSWGQGTLVTVSS
VL: DIQMTQSPSSLSASVGDRVTITCRASQSIGRYLNWYQQKPGKAPKLLIYTASSLQSGVPSRFSGSGSGTEFTLTISSLQPEDFATYYCQQSYNIPPLTFGGGTKVEIK
B15: GAR17 (antibody, V domains shown)
VH: EVQLVESGGGLGQPGGSLRLSCAASGFNFSNYAMSWVRQAPGKGLEWISTVGGSGDSTYYADSVKGRFTISIDNSKNRLYLQMNSLRSEDTAVYYCAKELAVMPPYFYYYAMDVWGQGTTVTVSS
VL: QPVLTQPPSASGTPGQRVTISCSGTTSNVGSTYVYWYQQLPGTAPKLLIYRYNQRPSGVPDRFSGSKSGTSASLVISGLRSDDEAVYYCATWDDSRHVVFGGGTKLTVL
B16: GAR11 (antibody, V domains shown)
VH: EVQLVQSGTEVKKPGSSVKVSCEASGGTFSKYAITWVRQAPGQGLEWMGGIIPIFGTANYAQKFQDRVKITADEITSIAYMELNSLSSEDTAVYYCARDNRGRGFGEILSYYYGMDVWGQGTTVTVSS
VL: SALTQPASVSGSPGQSITISCTGTSSDVGGYNYVSWYQQHPGKAPKLMIYDVATRPSGVSDRFSGSKSGNTASLTISGLQAEDEADYYCSSYTSSNTLAFGGGTKLTVL
B17: GAR03 Fab (Fab, V domains shown)
VH: QVQLVQSGAEVKKPGASVKVSCKASGYTFSSYDINWVRQAPGQGLEWMGWMSPNSGNTGYAQKFQGRVTMTRSTSMSTAYMELSSLRSEDTAVYFCARMSSSLTNYLDYWGQGTLVTVSS
VL: SYVLTQPPSVAVAPGQTARIRCGENDIGSKNVHWYQQKSGQAPVLVVYDDSDRPSGIPERFSGSNSGNTATLTISRVEAGDEADYYCQVWDSTGDHPDVVFGGGTKLTVL
notes: also called GAR03 antibody Fab; source: ExpiCHO, purified (Talon resin, S200 SEC)
B18: GAR12 Fab (Fab, V domains shown)
VH: B1 VH
VL: B1 VL
notes: also called GAR12 Fab fragment; source: ExpiCHO, purified (Talon resin, S200 SEC)
B19: 10G4 Fab (Fab, V domains shown)
VH: QVQLVESGGGVVQPGRSLRLSCAASGFTFSSYGMHWVRQAPGKGLEWVAVIWYDGSDKYYADSVKGRFTISRDNSKNTLYLQINSLRAEDTAMYYCAREATAGFDYWGQGNLVTVSS
VL: NIQMTQSPSAMSASVGDRVTITCRARQDISSYLAWFQQKPGKVPKHLIYAASTLLSGVPSRFSGSGSGTEFTLTISSLQPEDFATYYCLQHNSYPYTFGQGTKLEIN
notes: also called additional antibody Fab (10G4)

In one assay the target is T1, SARS-CoV-2 RBD (residues 319-541), ancestral strain (SARS-CoV-2, UniProt P0DTC2).
T1 construct: source: Expi293, purified (Talon resin)
Kind of assay: BLI. The conditions noted are these: both partners purified.
Regarding B1, the binding result was “binds”.
With B2, the affinity, expressed as Kd, was 540 pM.
Regarding B3, the binding result is listed as “binds”.

Another assay deals with T1, SARS-CoV-2 RBD (residues 319-541), ….
Experiment: not given
Details: not given
As for B4, the binding result is recorded as “binds”.
The same measure, in the same setting: with B5 the entry was “binds”; with B6, “binds”.
On to B7, for which the binding result is “binds”.
Take B8: the binding result was “binds”.
The same measure, in the same setting: for B9 the value was “binds”; for B10, “binds”.
For B11, the binding result is “binds”.
For B12, the binding result is given as “binds”.
Consider B13, for which the binding result was “binds”.
The same measure, in the same setting: with B14 the entry was “binds”; with B15, “binds”; with B16, “binds”.

A further assay has as its target bat RaTG12-CoV RBD (Bat coronavirus RaTG13 (printed as …, UniProt A0ABF7PLN6)).
Experiment: not given
Details: not given
Consider B8, for which the binding result is “binds”.
For B9, the binding result is on record as “binds”.
B11: the binding result is “binds”.
Still for that read-out and setting: with B13 the entry was “binds”.
Take B14: the binding result is recorded as “binds”.
As to B16, the binding result is recorded as “binds”.

Another assay deals with SARS-CoV-1 RBD (SARS-CoV (SARS-CoV-1), isolate not …, UniProt P59594).
Experiment: not given
Details: not given
Turning to B8, the binding result was “binds”.
B9: the binding result was “binds”.
On the same count and under the same terms, for B11 the value was “binds”; for B13, “binds”.
As to B14, the binding result is listed as “binds”.
On the same count and under the same terms, for B16 the value was “binds”.

A further assay deals with T2, C-terminally His-tagged SARS-CoV-2 RBD (residues 333-528) (SARS-CoV-2, UniProt P0DTC2).
T2 construct: source: expressed and purified as for the other RBDs (Expi293, Talon resin)
Kind of assay: crystal structure. The conditions noted are these: both partners purified.
On to B17, for which the binding result was “binds”.
Same read-out and setting: with B18 the entry was “binds”; with B19, “binds”.

Broadly, the Kd is the concentration at which binding is half-saturated. Read a high Kd as lower affinity.
